The source of these data is PMC10839757.

For orientation: Km means the substrate concentration at which the rate is half of its maximum. By kcat/Km is commonly meant the turnover number divided by the Michaelis constant.

Holding throughout (test): purified protein
Substrate in data set [1]: NNC(=O)c1ccncc1
Particulars: pH 7.5.

Substrate in data set [2]: COc1cc(-c2ccc(N)c(OC)c2)ccc1N
The note with it: pH 5.5.

Substrate in data set [3]: NC(=O)c1ccc[n+]([C@@H]2O[C@H](COP(=O)(O)OP(=O)(O)OC[C@H]3O[C@@H](n4cnc5c(N)ncnc54)[C@H](O)[C@@H]3O)[C@@H](O)[C@H]2O)c1
The note with it: pH 7.5.

B1: WT-KatG (Mt-KatG, Mycobacterium tuberculosis catalase-peroxidase) (Mycobacterium tuberculosis H37Rv) (protein)
chain: MPEQHPPITETTTGAASNGCPVVGHMKYPVEGGGNQDWWPNRLNLKVLHQNPAVADPMGAAFDYAAEVATIDVDALTRDIEEVMTTSQPWWPADYGHYGPLFIRMAWHAAGTYRIHDGRGGAGGGMQRFAPLNSWPDNASLDKARRLLWPVKKKYGKKLSWADLIVFAGNCALESMGFKTFGFGFGRVDQWEPDEVYWGKEATWLGDERYSGKRDLENPLAAVQMGLIYVNPEGPNGNPDPMAAAVDIRETFRRMAMNDVETAALIVGGHTFGKTHGAGPADLVGPEPEAAPLEQMGLGWKSSYGTGTGKDAITSGIEVVWTNTPTKWDNSFLEILYGYEWELTKSPAGAWQYTAKDGAGAGTIPDPFGGPGRSPTMLATDLSLRVDPIYERITRRWLEHPEELADEFAKAWYKLIHRDMGPVARYLGPLVPKQTLLWQDPVPAVSHDLVGEAEIASLKSQIRASGLTVSQLVSTAWAAASSFRGSDKRGGANGGRIRLQPQVGWEVNDPDGDLRKVIRTLEEIQESFNSAAPGNIKVSFADLVVLGGCAAIEKAAKAAGHNITVPFTPGRTDASQEQTDVESFAVLEPKADGFRNYLGKGNPLPAEYMLLDKANLLTLSAPEMTVLVGGLRVLGANYKRLPLGVFTEASESLTNDFFVNLLDMGITWEPSPADDGTYQGKDGSGKVKWTGSRVDLVFGSNSELRALVEVYGADDAQPKFVQDFVAAWDKVMNLDRFDVR
As to B1, the Km in the data set “purified protein [1]” came to 1900 ± 100 µM; in “purified protein [2]”, 2.1 ± 0.8 µM; in “purified protein [3]” it was 210 ± 40 µM. For the same protein, the kcat/Km in the data set “purified protein [1]” is 50.6 M⁻¹ s⁻¹; in “purified protein [2]”, 3.1e+06 M⁻¹ s⁻¹; in the data set “purified protein [3]”, 443 M⁻¹ s⁻¹.
